Holding throughout (experiment): MST
One experiment addresses GST-tag (Schistosoma japonicum).
Experiment [1] has as its target T1, recombinant His-tagged PORA (Arabidopsis, UniProt Q42536 70-405).
T1 chain: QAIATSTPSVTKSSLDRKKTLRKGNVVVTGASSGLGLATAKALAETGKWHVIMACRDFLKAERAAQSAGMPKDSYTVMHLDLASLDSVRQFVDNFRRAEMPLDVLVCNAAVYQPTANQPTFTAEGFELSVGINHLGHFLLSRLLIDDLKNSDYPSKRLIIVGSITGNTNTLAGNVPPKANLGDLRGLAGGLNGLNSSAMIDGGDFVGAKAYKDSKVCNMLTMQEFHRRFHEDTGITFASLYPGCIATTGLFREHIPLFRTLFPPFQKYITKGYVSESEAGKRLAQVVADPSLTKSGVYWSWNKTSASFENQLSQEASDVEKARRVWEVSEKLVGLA

Another experiment concerns the target T2, ΔREDGluTR-6xHis (Arabidopsis thaliana).
T2 chain: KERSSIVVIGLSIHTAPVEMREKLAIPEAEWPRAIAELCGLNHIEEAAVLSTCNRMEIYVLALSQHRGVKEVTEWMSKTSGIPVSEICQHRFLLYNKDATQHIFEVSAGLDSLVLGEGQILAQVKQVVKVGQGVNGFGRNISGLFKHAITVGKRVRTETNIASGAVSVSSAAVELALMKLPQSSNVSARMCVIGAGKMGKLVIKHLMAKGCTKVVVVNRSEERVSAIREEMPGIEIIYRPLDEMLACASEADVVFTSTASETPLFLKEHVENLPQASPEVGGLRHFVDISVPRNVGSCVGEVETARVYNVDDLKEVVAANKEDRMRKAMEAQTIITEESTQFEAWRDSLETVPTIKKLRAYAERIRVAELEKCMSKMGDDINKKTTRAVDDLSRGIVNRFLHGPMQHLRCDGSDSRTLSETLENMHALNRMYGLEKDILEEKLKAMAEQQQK

In experiment [2] the target is T3, recombinant His-tagged full-length GluTR1 (Arabidopsis, UniProt P42804 62-543).
T3 chain: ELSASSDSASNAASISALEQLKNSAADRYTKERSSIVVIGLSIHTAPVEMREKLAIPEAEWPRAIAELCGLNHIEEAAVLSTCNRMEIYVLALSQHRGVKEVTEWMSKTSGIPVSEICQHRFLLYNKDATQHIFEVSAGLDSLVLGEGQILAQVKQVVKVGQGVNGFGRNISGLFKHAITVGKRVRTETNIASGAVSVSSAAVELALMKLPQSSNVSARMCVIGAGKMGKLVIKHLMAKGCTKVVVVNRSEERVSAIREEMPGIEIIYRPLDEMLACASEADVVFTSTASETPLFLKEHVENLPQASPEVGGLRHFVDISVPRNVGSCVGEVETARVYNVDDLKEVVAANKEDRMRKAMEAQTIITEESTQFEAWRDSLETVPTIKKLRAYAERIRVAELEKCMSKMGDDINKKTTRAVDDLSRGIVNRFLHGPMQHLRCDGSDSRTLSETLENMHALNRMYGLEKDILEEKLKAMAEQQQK

Experiment [3] concerns the target T4, recombinant His-tagged PORB (Arabidopsis, UniProt P21218 67-401).
T4 chain: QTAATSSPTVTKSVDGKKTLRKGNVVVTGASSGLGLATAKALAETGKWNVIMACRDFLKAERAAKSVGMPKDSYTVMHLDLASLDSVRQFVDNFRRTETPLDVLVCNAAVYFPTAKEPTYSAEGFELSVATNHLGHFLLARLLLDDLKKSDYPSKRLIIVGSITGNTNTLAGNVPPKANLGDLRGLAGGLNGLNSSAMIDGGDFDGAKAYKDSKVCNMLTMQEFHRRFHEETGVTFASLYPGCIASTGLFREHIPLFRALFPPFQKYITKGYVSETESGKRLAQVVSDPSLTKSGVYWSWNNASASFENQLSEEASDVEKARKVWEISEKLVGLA

In experiment [4] the target is T5, TPR domain of FLU, TPR_((FLU)), GST-tagged (Arabidopsis).
T5 chain: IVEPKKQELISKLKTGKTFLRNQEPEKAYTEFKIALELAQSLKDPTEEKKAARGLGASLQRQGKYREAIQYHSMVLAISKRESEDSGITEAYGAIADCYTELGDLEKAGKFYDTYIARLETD

Experiment [5] concerns the target T6, recombinant His-tagged GluTR-binding protein (GBP) (Arabidopsis, UniProt Q9LU39 43-317).
T6 chain: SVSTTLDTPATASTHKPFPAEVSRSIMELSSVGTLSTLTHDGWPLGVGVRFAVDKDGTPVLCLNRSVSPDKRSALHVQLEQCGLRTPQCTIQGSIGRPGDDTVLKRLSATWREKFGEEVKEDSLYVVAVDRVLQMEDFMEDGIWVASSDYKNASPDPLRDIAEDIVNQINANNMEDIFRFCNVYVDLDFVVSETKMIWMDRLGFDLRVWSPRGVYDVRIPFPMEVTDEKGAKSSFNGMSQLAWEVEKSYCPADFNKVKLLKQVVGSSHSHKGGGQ

The target of experiment [6] is T7, linker domain followed by the TPR domain of FLU, link TPR_((FLU)) (Arabidopsis).
T7 chain: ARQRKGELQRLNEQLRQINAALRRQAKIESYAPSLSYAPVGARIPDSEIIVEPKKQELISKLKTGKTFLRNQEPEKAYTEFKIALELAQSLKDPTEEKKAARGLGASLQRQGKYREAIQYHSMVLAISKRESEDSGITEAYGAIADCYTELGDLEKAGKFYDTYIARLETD

For experiment [7], the target named is T8, recombinant His-tagged PORC (Arabidopsis, UniProt O48741 68-401).
T8 chain: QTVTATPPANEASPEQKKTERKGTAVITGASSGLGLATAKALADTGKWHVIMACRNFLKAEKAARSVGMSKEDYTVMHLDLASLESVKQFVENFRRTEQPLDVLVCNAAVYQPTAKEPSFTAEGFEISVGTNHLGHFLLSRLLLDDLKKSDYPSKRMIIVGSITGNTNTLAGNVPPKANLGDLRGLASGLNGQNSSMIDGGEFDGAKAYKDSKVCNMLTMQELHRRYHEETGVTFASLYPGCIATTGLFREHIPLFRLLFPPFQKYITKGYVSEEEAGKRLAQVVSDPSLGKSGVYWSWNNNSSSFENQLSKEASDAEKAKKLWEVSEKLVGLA

B1: recombinant 6×His-tagged TTP1, RED-NHS labelled (natural protein)
chain: MLMTLAATTSVSFNSKLLLFRIRCSDSNPKRGFGSKKEEKDPALQQRKSSSKQSVSVPRKAPGLNTQFEGKSGRSFDIDFDERLENIRRSALEQKKTEVVKEFGPIDYDAPVKSDQKTIGLGTKVGVGIAVVVFGLVFALGDFLPTGSDSPTKNTTVVKNQISEEEKATLQQRLKEFETTLNGTPQDQAALEGAAVTLTELGDYSRAAAFLEKLAKERPTDPDVFRLLGEVNYELNNYEGSIAAYKISEKVSKGIDLEVTRGLMNAYLAAKKPDEAVKFLLDTRERLNTKKTSTTDSVTDETNLDPIQVELLLGKAYSDWGHISDAIAVYDQLISAHPEDFRGYLAKGIILRENGSRGDAERMFIQARFFAPNKAKALVDRYSKL
modifications: labelled with the RED-NHS Protein Labeling Kit, degree of labeling approximately 1.0
Usually Kd stands for the constant that tells how readily two partners part at equilibrium. In the case of B1, the Kd with GST-tag is greater than 400 µM; in experiment [1], 1.31 µM; with ΔREDGluTR-6xHis, 3.05 µM; in experiment [2] it was 0.295 µM; in [3], 0.476 µM; in experiment [4], 7.9 µM. Further, the results for the Kd in experiment [5], in experiment [6] and in experiment [7] were 0.266 µM, 1.61 µM and 0.112 µM, respectively.

The values above are taken from publication PMC10967246 (2023).
